Measured values: the supplement of paper PMC7125110
± gives the standard error. Variants at the floor of the assay were thinned out.

B1: glmS ribozyme (parent)
chain: AUAAAAGCGCCAGAACUACAGAAAUGUAGUUGACGAGGAGGAGGUUUAUCGAAUUUUCGGCGGAUGCCUCCAAA

Variants of: B1
Experiment: self-cleavage kobs at 2500 uM GlcN6P; higher = faster cleavage; RNA array
Details: with glucosamine-6-phosphate
How it was run: (§1)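 Tiles of sequenced MiSeq chips were imaged over ~14 h at 37 °C. On them, barcoded ribozyme variants had been transcribed in situ by E. coli RNA polymerase and were tracked via a hybridised Cy3 probe while glucosamine-6-phosphate (40 μM to 10 mM) in HEPES/KCl/Mg(OAc)2 buffer flowed in. Per-tile medians, normalised to baseline and to non-cleaving reference variants, were fit to one- or two-exponential decays for kobs, and weighted Michaelis–Menten fits gave kcat and KM.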

Variant	self-cleavage kobs at 2500 uM GlcN6P
C10U C11G U57A	< 1e-05 s⁻¹
C8U A12C A15C A33C U45G C50G	< 1e-05 s⁻¹
A12G C16U G29A G40A A42U U45G	8.49e-05 ± 2.3e-05 s⁻¹
C8U G9A U45A U69C	< 1e-05 s⁻¹
C11G G35C U49G	< 1e-05 s⁻¹
C8A G41C C58U	< 1e-05 s⁻¹
C11U C34G U54C	< 1e-05 s⁻¹
C10U G35C G38A A52C G62U	< 1e-05 s⁻¹
G13A U30A C58A	0.000138 ± 3.4e-05 s⁻¹
C11U G40A U46A G59C	< 1e-05 s⁻¹
C11U A36G G40U G44A C61A C71U	< 1e-05 s⁻¹
C11U A15C A48G U55A	< 1e-05 s⁻¹
C11U C16A G44U G60A	< 1e-05 s⁻¹
G9U G29U U31A U46A	< 1e-05 s⁻¹
G9C U46A C71U	< 1e-05 s⁻¹
A12U G62C C70G	< 1e-05 s⁻¹
A12G C16U U69G	6.28e-05 ± 2.8e-05 s⁻¹
A12G U56G G66A	0.000134 ± 2.5e-05 s⁻¹
G9C G13U A48G	< 1e-05 s⁻¹
A12G U54C U65G	3.01e-05 ± 1.2e-05 s⁻¹
C10U C11U A36C A42U A48C	< 1e-05 s⁻¹
A12C A14G U69G	0.000112 ± 3.2e-05 s⁻¹
A12G G29U U47G	6.74e-05 ± 1.5e-05 s⁻¹

Variant	self-cleavage kobs at 2500 uM GlcN6P
C10A U47A C70A	0.000334 ± 0.00015 s⁻¹
G9C C67A C70G	< 1e-05 s⁻¹
A12C C16U U31G G41U G43U	< 1e-05 s⁻¹
C10U G35C G51U U56G G62U	< 1e-05 s⁻¹
C10U A36C G40U G59U C67G	< 1e-05 s⁻¹
G13A A33C C70U	< 1e-05 s⁻¹
A12U C16G U30C	0.000813 ± 0.00031 s⁻¹
C8G A36C A53C	< 1e-05 s⁻¹
A12G C16U G43A U45C	< 1e-05 s⁻¹
G9U C50U C68U	< 1e-05 s⁻¹
C8U G37U G62U A64U	< 1e-05 s⁻¹
G13A U54G C68A	7.33e-05 ± 2.7e-05 s⁻¹
G13A G44U U45A U57A U69C	< 1e-05 s⁻¹
C8U C10U G13U G29C C58U C61A C67A	0.000532 ± 0.00015 s⁻¹
G9A A12C G59C	< 1e-05 s⁻¹
A12C U31C U56C	0.000204 ± 6.7e-05 s⁻¹
G9A C61A A64U C67A	< 1e-05 s⁻¹
C11G A14G G43U G60C	< 1e-05 s⁻¹
A12U A33U G40U	3.71e-05 ± 1.4e-05 s⁻¹
A12C G13A A14G U31G	7.54e-05 ± 3e-05 s⁻¹
A12G G51U U56G	< 1e-05 s⁻¹
C11U U46A G62U	< 1e-05 s⁻¹
C11U U46A G62A	< 1e-05 s⁻¹

Variant	self-cleavage kobs at 2500 uM GlcN6P
G9A C16G U69A	< 1e-05 s⁻¹
C11G G37U A53C	< 1e-05 s⁻¹
C8G G21U U55G G60U C67G	< 1e-05 s⁻¹
C8U U46G C61U	< 1e-05 s⁻¹
C10G A14U G35U G60C	< 1e-05 s⁻¹
C11U U54A C70G	9.38e-05 ± 2.4e-05 s⁻¹
A12U A48U G51C G60U	< 1e-05 s⁻¹
C10U A12C G66A	3.37e-05 ± 1.5e-05 s⁻¹
A12U U30A G37A G59U	< 1e-05 s⁻¹
G13C C34A C67U	< 1e-05 s⁻¹
G9C C11A G44U G63A C67U	< 1e-05 s⁻¹
G9C G37U C58U G62U A64U C70G	< 1e-05 s⁻¹
C10A A36C C50G	0.000367 ± 0.00015 s⁻¹
C8A G40C C67A	< 1e-05 s⁻¹
C10A C50U C68U	6.13e-05 ± 2.7e-05 s⁻¹
C11A A14G G29U	5.93e-05 ± 2.7e-05 s⁻¹
A12U A15U U47C	0.000776 ± 0.00023 s⁻¹
C11U A14G U49C	< 1e-05 s⁻¹
C10G C34A A52U	< 1e-05 s⁻¹
C10A C11G G40U C50G A52U	< 1e-05 s⁻¹
C10G U30G A39U G44C A48C	< 1e-05 s⁻¹
A12C A39G U49C	< 1e-05 s⁻¹
G13A U49C C50U	< 1e-05 s⁻¹

Variant	self-cleavage kobs at 2500 uM GlcN6P
C10U A33U G41U U49C G62C	< 1e-05 s⁻¹
C11U U30A G37C U49A	< 1e-05 s⁻¹
C8G A52G U55G C67G C68U	5.08e-05 ± 1.6e-05 s⁻¹
C11G U46G G59C U65G	0.000186 ± 8.3e-05 s⁻¹
C8A G35U A52U	< 1e-05 s⁻¹
C10A G35U A48C	< 1e-05 s⁻¹
C8U G9U G13A G37A G41A	< 1e-05 s⁻¹
C10G G41A C58G	< 1e-05 s⁻¹
G9A A15G G26U	< 1e-05 s⁻¹
A12G C61U C67U C68G	5.12e-05 ± 2.3e-05 s⁻¹
G9C A39U U45C C58U	< 1e-05 s⁻¹
C11G G13A G41A A52U A53C G63C C68G	< 1e-05 s⁻¹
C8A G13C U46G U56A U69C C70G	< 1e-05 s⁻¹
C10G U47C A53U U54A C70U	< 1e-05 s⁻¹
C8U A12U C34A	< 1e-05 s⁻¹
A12G A36C C70U	< 1e-05 s⁻¹
A12U A48U C70G	0.000115 ± 5e-05 s⁻¹
A12U A48U C58U	< 1e-05 s⁻¹
C10A G29C U55A C70G	9.79e-05 ± 2.6e-05 s⁻¹
C10G A12G U47G U54C C68U	< 1e-05 s⁻¹
A12U G37A C70G	0.00013 ± 3.4e-05 s⁻¹
C10U G40A G44C C70A	< 1e-05 s⁻¹
C10U C11U G13C A42U U54A	< 1e-05 s⁻¹

Variant	self-cleavage kobs at 2500 uM GlcN6P
C10A G62C C68A	0.00024 ± 0.00011 s⁻¹
A12U C34A A48U	< 1e-05 s⁻¹
C10G U46G U55A A64C U69G	< 1e-05 s⁻¹
C11U G44U C67G	0.00425 ± 0.0019 s⁻¹
G9C C16A C34A G44C A64G	< 1e-05 s⁻¹
A12G A14G G32U A33U G51C	< 1e-05 s⁻¹
C10G G37C U49G C68G U69G	9.24e-05 ± 4.5e-05 s⁻¹
G9A U54G G62A	< 1e-05 s⁻¹
A12U U30G U49C	< 1e-05 s⁻¹
C11U A12G A15G	0.000326 ± 8.5e-05 s⁻¹
A12G G35U C67A	< 1e-05 s⁻¹
A12G A15U C71G	2.52e-05 ± 1.1e-05 s⁻¹
A12C C50G C70A	0.000246 ± 5.7e-05 s⁻¹
C11A U54A U55G	0.000135 ± 4.1e-05 s⁻¹
C10G G44U C71A	< 1e-05 s⁻¹
C10U G29U A39G U57C C71A	< 1e-05 s⁻¹
G9C G13C C34A G62C A64G	< 1e-05 s⁻¹
C8G A33U U56G G59U	< 1e-05 s⁻¹
C10G A36G A52U	< 1e-05 s⁻¹
C10G G41C G51A C61G	< 1e-05 s⁻¹
A12C U46A C71A	6.86e-05 ± 2.4e-05 s⁻¹
C8G G13U A39U C68G	< 1e-05 s⁻¹
G9U A52U C58G	< 1e-05 s⁻¹

Variant	self-cleavage kobs at 2500 uM GlcN6P
A12U U31G C58G	7.42e-05 ± 2.7e-05 s⁻¹
C11U A15G G43A C67G	0.000114 ± 3.9e-05 s⁻¹
A12G A15U G37U A42G U55A	< 1e-05 s⁻¹
G9C U49A U54A C67A	< 1e-05 s⁻¹
A12C G44C U65C	< 1e-05 s⁻¹
C10G G40C G59U	< 1e-05 s⁻¹
C11G C50G C58A C61A	0.000322 ± 0.00011 s⁻¹
G13A U47A G66A	0.000103 ± 2.2e-05 s⁻¹
C10A A12C G51U	< 1e-05 s⁻¹
A12G G43C U45C C61G	< 1e-05 s⁻¹
C11U G29U C67G	0.000197 ± 6.6e-05 s⁻¹
G9C A42U G44U	< 1e-05 s⁻¹
C8U C16G G29C	< 1e-05 s⁻¹
A12U U31C U57G	5.17e-05 ± 1.8e-05 s⁻¹
G9C A14U G29C	< 1e-05 s⁻¹
C11U A14C A39U U56C	7.9e-05 ± 2.4e-05 s⁻¹
C8U C34U G37A U54C	< 1e-05 s⁻¹
C10A G66A C68A	5.96e-05 ± 2.6e-05 s⁻¹
C10U G29U C61A C67G	0.000121 ± 2.9e-05 s⁻¹
C11G U31A A42C	< 1e-05 s⁻¹
G9U A14U A42C	< 1e-05 s⁻¹
C11G G26U G43C	< 1e-05 s⁻¹
C10A C16U A64U	< 1e-05 s⁻¹

Variant	self-cleavage kobs at 2500 uM GlcN6P
A12G A53U U55G	0.000166 ± 2.9e-05 s⁻¹
C11U A52C C68U C71G	0.0003 ± 0.00014 s⁻¹
A12U U65G C70A	6.44e-05 ± 2.6e-05 s⁻¹
C8G A14G G32U A64U	< 1e-05 s⁻¹
A12C U56A C58G	0.00043 ± 8.1e-05 s⁻¹
G9A G51U U56G G63C	< 1e-05 s⁻¹
A12C U46C C70A	3.42e-05 ± 1.2e-05 s⁻¹
C10U C58A C71U	< 1e-05 s⁻¹
C11G G40A A53U	< 1e-05 s⁻¹
A12C C16U G40A	0.00176 ± 0.00038 s⁻¹
C11U C16G C70G	5.75e-05 ± 2.7e-05 s⁻¹
A12C U55A C58A	8.77e-05 ± 1.8e-05 s⁻¹
G9U G40A G60U	< 1e-05 s⁻¹
G9C A15C G44A G60U C61G	< 1e-05 s⁻¹
C11A C16U A23C A39G U54C C58U	< 1e-05 s⁻¹
C10G A14U G32U C61A G63A	< 1e-05 s⁻¹
A12C G38C C71U	< 1e-05 s⁻¹
C10U A14C A15U G41A	< 1e-05 s⁻¹
C11G G51A A64C	< 1e-05 s⁻¹
C8U G60U C70G	< 1e-05 s⁻¹
C8U G9U A15U G44U	< 1e-05 s⁻¹
C8A G59C C67G	< 1e-05 s⁻¹
G9U G13U A14G G37A G60C C71U	< 1e-05 s⁻¹

Variants of: B1
Experiment: self-cleavage kobs at 10000 uM GlcN6P; higher = faster cleavage; RNA array
Details: with glucosamine-6-phosphate
How it was run: as §1

Variant	self-cleavage kobs at 10000 uM GlcN6P
C10U C11G U57A	< 1e-05 s⁻¹
A12G C16U G29A G40A A42U U45G	8.82e-05 ± 1.6e-05 s⁻¹
C11G G35C U49G	< 1e-05 s⁻¹
C10U A36C G40U G59U C67G	< 1e-05 s⁻¹
C8G A36C A53C	< 1e-05 s⁻¹
C10G C34A A52U	< 1e-05 s⁻¹
C8G A52G U55G C67G C68U	3.18e-05 ± 1.4e-05 s⁻¹
A12U G37A C70G	9.11e-05 ± 2.1e-05 s⁻¹
C11U A12G A15G	0.000749 ± 0.00017 s⁻¹
C11A U54A U55G	0.000124 ± 1.8e-05 s⁻¹
C11U A15G G43A C67G	0.000119 ± 3.5e-05 s⁻¹
G13A U47A G66A	0.000143 ± 2.8e-05 s⁻¹
A12G G43C U45C C61G	< 1e-05 s⁻¹
C11G U31A A42C	< 1e-05 s⁻¹
A12U U65G C70A	0.000122 ± 2.2e-05 s⁻¹
C11U C16G C70G	0.000142 ± 4.4e-05 s⁻¹
